In the RNAGym collection of RNA variant scans (doi:10.7554/elife.90254):

B1: LINE1-full (parent)
chain: UACGUAGGUGGUUUUCCCCUGAUAGUGCUAAGGGGGCCUGGAAGUUUGGACUGGGCAGAGCUCAACACAGCGUGGCAAAGUGGCUGUGGCUAGACUGCCUCUCUGGAUUCCUCGUCACUCAGCAGGGCAUCUCUGAGAGAAAUGCC

Variants of: B1
Assay: self-cleavage, relative activity (ratio to wild type); higher = more cleavage; in vitro, sequencing; the parent is a self-cleaving ribozyme

Variant | self-cleavage
UACGUAGGUGGCUUUCCCCUGAUAGUGCUAAGGGGGCCUGGAAGUUUAGACUGGGCAGAGCUCAACACAGCGUGGCAAAGUGGCUGUGGCUAGACUGCCUCUCUGGAUUCCUCGUCACUCAGCAGGGCAUCUCUGAGAGAAAUGCC | 0.97
UACGUAGGUGGCUUUCCCCUGAUAGUGCUAAGGGGGCCUGGAAGUUUGAACUGGGCAGAGCUCAACACAGCGUGGCAAAGUGGCUGUGGCUAGACUGCCUCUCUGGAUUCCUCGUCACUCAGCAGGGCAUCUCUGAGAGAAAUGCC | 1.28
UACGUAGGUGGCUUUCCCCUGAUAGUGCUAAGGGGGCCUGGAAGUUUGGACUGGGCAGAGCUCAACACAGCAUGGCAAAGUGGCUGUGGCUAGACUGCCUCUCUGGAUUCCUCGUCACUCAGCAGGGCAUCUCUGAGAGAAAUGCC | 1.25
UACGUAGGUGGCUUUCCCCUGAUAGUGCUAAGGGGGCCUGGAAGUUUGGACUGGGCAGAGCUCAACACAGCGUGCCAAAGUGGCUGUGGCUAGACUGCCUCUCUGGAUUCCUCGUCACUCAGCAGGGCAUCUCUGAGAGAAAUGCC | 0.66
UACGUAGGUGGCUUUCCCCUGAUAGUGCUAAGGGGGCCUGGAAGUUUGGACUGGGCAGAGCUCAACACAGCGUGGCAAAAUGGCUGUGGCUAGACUGCCUCUCUGGAUUCCUCGUCACUCAGCAGGGCAUCUCUGAGAGAAAUGCC | 0.84
UACGUAGGUGGCUUUCCCCUGAUAGUGCUAAGGGGGCCUGGAAGUUUGGACUGGGCAGAGCUCAACACAGCGUGGCAAAGUCGCUGUGGCUAGACUGCCUCUCUGGAUUCCUCGUCACUCAGCAGGGCAUCUCUGAGAGAAAUGCC | 2.15
UACGUAGGUGGCUUUCCCCUGAUAGUGCUAAGGGGGCCUGGAAGUUUGGACUGGGCAGAGCUCAACACAGCGUGGCAAAGUGUCUGUGGCUAGACUGCCUCUCUGGAUUCCUCGUCACUCAGCAGGGCAUCUCUGAGAGAAAUGCC | 1.07
UACGUAGGUGGCUUUCCCCUGAUAGUGCUAAGGGGGCCUGGAAGUUUGGACUGGGCAGAGCUCAACACAGCGUGGCAAAGUGGCUGUGGCUAGACUGCCUCUCUGAAUUCCUCGUCACUCAGCAGGGCAUCUCUGAGAGAAAUGCC | 1.68
UACGUAGGUGGCUUUCCCCUGAUAGUGCUAAGGGGGCCUGGAAGUUUGGACUGGGCAGAGCUCAACACAGCGUGGCAAAGUGGCUGUGGCUAGACUGCCUCUCUGGAUUCCUCGUCACUCAGCAGGGCAUCUCUUAGAGAAAUGCC | 1.57
UACGUAGGUGGCUUUCCCCUGAUAGUGCUAAGGGGGCCUGGAAGUUUGGACUGGGCAGAGCUCAACACAGCGUGGCAAAGUGGCUGUGGCUAGACUGCCUCUCUGGAUUCCUCGUCACUCAGCAGGGCAUCUCUGAGAGAAAUACC | 1.08
UACGUAGGUGGCUCUCCCCUGAUAGUGCUAAGGGGGCCUGGAAGUUUGGACUGGGCAGAGCUCAACACAGCGUGGCAAAGUGGCUGUGGCUAGACUGCCUCUCUGGAUUCCUCGUCACUCAGCAGGGCAUCUCUGAGAGAAAUGCC | 1.12
UACGUAGGUGGCUUACCCCUGAUAGUGCUAAGGGGGCCUGGAAGUUUGGACUGGGCAGAGCUCAACACAGCGUGGCAAAGUGGCUGUGGCUAGACUGCCUCUCUGGAUUCCUCGUCACUCAGCAGGGCAUCUCUGAGAGAAAUGCC | 0.7
UACGUAGGUGGCUUCCCCCUGAUAGUGCUAAGGGGGCCUGGAAGUUUGGACUGGGCAGAGCUCAACACAGCGUGGCAAAGUGGCUGUGGCUAGACUGCCUCUCUGGAUUCCUCGUCACUCAGCAGGGCAUCUCUGAGAGAAAUGCC | 1.05
UACGUAGGUGGCUUUCCCCAGAUAGUGCUAAGGGGGCCUGGAAGUUUGGACUGGGCAGAGCUCAACACAGCGUGGCAAAGUGGCUGUGGCUAGACUGCCUCUCUGGAUUCCUCGUCACUCAGCAGGGCAUCUCUGAGAGAAAUGCC | 1.23
UACGUAGGUGGCUUUCCCCGGAUAGUGCUAAGGGGGCCUGGAAGUUUGGACUGGGCAGAGCUCAACACAGCGUGGCAAAGUGGCUGUGGCUAGACUGCCUCUCUGGAUUCCUCGUCACUCAGCAGGGCAUCUCUGAGAGAAAUGCC | 0.78
UACGUAGGUGGCUUUCCCCUGAAAGUGCUAAGGGGGCCUGGAAGUUUGGACUGGGCAGAGCUCAACACAGCGUGGCAAAGUGGCUGUGGCUAGACUGCCUCUCUGGAUUCCUCGUCACUCAGCAGGGCAUCUCUGAGAGAAAUGCC | 1.08
UACGUAGGUGGCUUUCCCCUGAUAGAGCUAAGGGGGCCUGGAAGUUUGGACUGGGCAGAGCUCAACACAGCGUGGCAAAGUGGCUGUGGCUAGACUGCCUCUCUGGAUUCCUCGUCACUCAGCAGGGCAUCUCUGAGAGAAAUGCC | 1.03
UACGUAGGUGGCUUUCCCCUGAUAGCGCUAAGGGGGCCUGGAAGUUUGGACUGGGCAGAGCUCAACACAGCGUGGCAAAGUGGCUGUGGCUAGACUGCCUCUCUGGAUUCCUCGUCACUCAGCAGGGCAUCUCUGAGAGAAAUGCC | 1.39
UACGUAGGUGGCUUUCCCCUGAUAGUGCUAAGGGGGCCGGGAAGUUUGGACUGGGCAGAGCUCAACACAGCGUGGCAAAGUGGCUGUGGCUAGACUGCCUCUCUGGAUUCCUCGUCACUCAGCAGGGCAUCUCUGAGAGAAAUGCC | 0.84
UACGUAGGUGGCUUUCCCCUGAUAGUGCUAAGGGGGCCUGGAAGAUUGGACUGGGCAGAGCUCAACACAGCGUGGCAAAGUGGCUGUGGCUAGACUGCCUCUCUGGAUUCCUCGUCACUCAGCAGGGCAUCUCUGAGAGAAAUGCC | 0.88

Variant | self-cleavage
UACGUAGGUGGCUUUCCCCUGAUAGUGCUAAGGGGGCCUGGAAGCUUGGACUGGGCAGAGCUCAACACAGCGUGGCAAAGUGGCUGUGGCUAGACUGCCUCUCUGGAUUCCUCGUCACUCAGCAGGGCAUCUCUGAGAGAAAUGCC | 0.98
UACGUAGGUGGCUUUCCCCUGAUAGUGCUAAGGGGGCCUGGAAGGUUGGACUGGGCAGAGCUCAACACAGCGUGGCAAAGUGGCUGUGGCUAGACUGCCUCUCUGGAUUCCUCGUCACUCAGCAGGGCAUCUCUGAGAGAAAUGCC | 1.35
UACGUAGGUGGCUUUCCCCUGAUAGUGCUAAGGGGGCCUGGAAGUAUGGACUGGGCAGAGCUCAACACAGCGUGGCAAAGUGGCUGUGGCUAGACUGCCUCUCUGGAUUCCUCGUCACUCAGCAGGGCAUCUCUGAGAGAAAUGCC | 1.24
UACGUAGGUGGCUUUCCCCUGAUAGUGCUAAGGGGGCCUGGAAGUGUGGACUGGGCAGAGCUCAACACAGCGUGGCAAAGUGGCUGUGGCUAGACUGCCUCUCUGGAUUCCUCGUCACUCAGCAGGGCAUCUCUGAGAGAAAUGCC | 0.82
UACGUAGGUGGCUUUCCCCUGAUAGUGCUAAGGGGGCCUGGAAGUUCGGACUGGGCAGAGCUCAACACAGCGUGGCAAAGUGGCUGUGGCUAGACUGCCUCUCUGGAUUCCUCGUCACUCAGCAGGGCAUCUCUGAGAGAAAUGCC | 1.42
UACGUAGGUGGCUUUCCCCUGAUAGUGCUAAGGGGGCCUGGAAGUUUGGACCGGGCAGAGCUCAACACAGCGUGGCAAAGUGGCUGUGGCUAGACUGCCUCUCUGGAUUCCUCGUCACUCAGCAGGGCAUCUCUGAGAGAAAUGCC | 1.11
UACGUAGGUGGCUUUCCCCUGAUAGUGCUAAGGGGGCCUGGAAGUUUGGACGGGGCAGAGCUCAACACAGCGUGGCAAAGUGGCUGUGGCUAGACUGCCUCUCUGGAUUCCUCGUCACUCAGCAGGGCAUCUCUGAGAGAAAUGCC | 1.84
UACGUAGGUGGCUUUCCCCUGAUAGUGCUAAGGGGGCCUGGAAGUUUGGACUGGGCAGAGCUCAACACAGCGGGGCAAAGUGGCUGUGGCUAGACUGCCUCUCUGGAUUCCUCGUCACUCAGCAGGGCAUCUCUGAGAGAAAUGCC | 1.29
UACGUAGGUGGCUUUCCCCUGAUAGUGCUAAGGGGGCCUGGAAGUUUGGACUGGGCAGAGCUCAACACAGCGUGGCAAAGUGGCAGUGGCUAGACUGCCUCUCUGGAUUCCUCGUCACUCAGCAGGGCAUCUCUGAGAGAAAUGCC | 0.06
UACGUAGGUGGCUUUCCCCUGAUAGUGCUAAGGGGGCCUGGAAGUUUGGACUGGGCAGAGCUCAACACAGCGUGGCAAAGUGGCUGAGGCUAGACUGCCUCUCUGGAUUCCUCGUCACUCAGCAGGGCAUCUCUGAGAGAAAUGCC | 0.06
UACGUAGGUGGCUUUCCCCUGAUAGUGCUAAGGGGGCCUGGAAGUUUGGACUGGGCAGAGCUCAACACAGCGUGGCAAAGUGGCUGUGGCAAGACUGCCUCUCUGGAUUCCUCGUCACUCAGCAGGGCAUCUCUGAGAGAAAUGCC | 0.64
UACGUAGGUGGCUUUCCCCUGAUAGUGCUAAGGGGGCCUGGAAGUUUGGACUGGGCAGAGCUCAACACAGCGUGGCAAAGUGGCUGUGGCUAGACGGCCUCUCUGGAUUCCUCGUCACUCAGCAGGGCAUCUCUGAGAGAAAUGCC | 0.28
UACGUAGGUGGCUUUCCCCUGAUAGUGCUAAGGGGGCCUGGAAGUUUGGACUGGGCAGAGCUCAACACAGCGUGGCAAAGUGGCUGUGGCUAGACUGCCUCCCUGGAUUCCUCGUCACUCAGCAGGGCAUCUCUGAGAGAAAUGCC | 1.18
UACGUAGGUGGCUUUCCCCUGAUAGUGCUAAGGGGGCCUGGAAGUUUGGACUGGGCAGAGCUCAACACAGCGUGGCAAAGUGGCUGUGGCUAGACUGCCUCGCUGGAUUCCUCGUCACUCAGCAGGGCAUCUCUGAGAGAAAUGCC | 0.88
UACGUAGGUGGCUUUCCCCUGAUAGUGCUAAGGGGGCCUGGAAGUUUGGACUGGGCAGAGCUCAACACAGCGUGGCAAAGUGGCUGUGGCUAGACUGCCUCUCAGGAUUCCUCGUCACUCAGCAGGGCAUCUCUGAGAGAAAUGCC | 1.3
UACGUAGGUGGCUUUCCCCUGAUAGUGCUAAGGGGGCCUGGAAGUUUGGACUGGGCAGAGCUCAACACAGCGUGGCAAAGUGGCUGUGGCUAGACUGCCUCUCCGGAUUCCUCGUCACUCAGCAGGGCAUCUCUGAGAGAAAUGCC | 1.56
UACGUAGGUGGCUUUCCCCUGAUAGUGCUAAGGGGGCCUGGAAGUUUGGACUGGGCAGAGCUCAACACAGCGUGGCAAAGUGGCUGUGGCUAGACUGCCUCUCUGGAUACCUCGUCACUCAGCAGGGCAUCUCUGAGAGAAAUGCC | 1.49
UACGUAGGUGGCUUUCCCCUGAUAGUGCUAAGGGGGCCUGGAAGUUUGGACUGGGCAGAGCUCAACACAGCGUGGCAAAGUGGCUGUGGCUAGACUGCCUCUCUGGAUUCCUCGACACUCAGCAGGGCAUCUCUGAGAGAAAUGCC | 0.87
UACGUAGGUGGCUUUCCCCUGAUAGUGCUAAGGGGGCCUGGAAGUUUGGACUGGGCAGAGCUCAACACAGCGUGGCAAAGUGGCUGUGGCUAGACUGCCUCUCUGGAUUCCUCGGCACUCAGCAGGGCAUCUCUGAGAGAAAUGCC | 2.63
